Laboratory results: patent US8563503B2, “Antibiotic, its nucleotide sequence, methods of construction and uses thereof” (Protein Design Lab. Ltd., priority 2011, dated 2013)
“Also recorded” adds a separate entry of the source.

Experiments:
[1] = system: methicillin-resistant Staphylococcus aureus (ATCC BAA-42); assay: Transmission electron microscope observation of bactericidal effect; format: cell-based
Procedure: Transmission Electron Microscope Observations of the Bactericidal Effect of the Novel Antibiotic PMC-SA1 on Methicillin-Resistant Staphylococcus aureus (ATCC BAA-42) (Dyed by 1% Phospho-Wolframic Acid, Magnified by 25,000 Fold)
Culture solution: 1% tryptone, 1% NaCl, 0.5% yeast extract, 0.5% glucose, 0.1% K2HPO4.
Con: control group, the bacterium was added to the above culture solution and proper amount of 0.3 M NaCl+50 mM boric acid buffer solution, 200 rpm, grew at 37° C. for 2 hours, and the bacterial appearance was still regular;
PMC: the bacterium was added to the above culture solution with 10 μg/ml PMC-SA1 for 0.5 hours.

Baumanii = assay: MIC by Agar Doubling Dilution Method, clinical isolates; format: cell-based; details: Baumanii clinical strains
How it was run: (§1)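 MIC = lowest drug level in agar showing no bacterial growth after 18-24 h at 37° C. Spots of 10^5 CFU/ml were multipoint-inoculated onto MH agar with twofold drug dilutions; enterococci used MH plus 5-10% rabbit blood under 5% CO2.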

E. coli = assay: as above; format: cell-based; details: E. coli clinical strains
How it was run: as §1

[2] = system: Staphylococcus aureus (MRSA); assay: as above; format: cell-based
How it was run: as §1

[3] = system: Staphylococcus aureus (MSSA); assay: as above; format: cell-based; details: MSSA clinical strains
How it was run: as §1

[4] = system: Staphylococcus epidermidis (MRSE); assay: as above; format: cell-based; details: MRSE clinical strains
How it was run: as §1

[5] = system: Staphylococcus epidermidis (MSSE strain); assay: as above; format: cell-based; details: MSSE clinical strains
How it was run: as §1

Enterococcus = assay: as above; format: cell-based, Enterococcus faecalis; details: Enterococcus clinical strains
How it was run: as §1

Enterococcus ATCC 700802 = assay: MIC against the infecting strain (Table 2); format: cell-based, Enterococcus faecalis; details: ATCC700802
Procedure: (3) Culture Solution • MH Broth Culture Solution: 25 g was added into […] distilled water, heat to dissolve, subpackaged, autoclaved at 116° C. for 20 minutes, and MH Solid Culture Medium, 36 g was added into 1000 ml distilled water, autoclaved at 116° C. for 20 minutes, used for drug sensitive test of Gram-positive and negative aerobic bacteria. • Blood culture solution for Enterococcus faecalis, which was prepared by adding defibration rabbit blood into the MH culture solution by 5-10% and cultured at 37° C. in 5% CO2 for 24 hours. 2. Experimental Methods (1) The Measurement of Minimum Inhibitory Concentration (MIC) • The Minimum Inhibitory Concentration (MIC) of PMC-SA1 was measured by Agar Doubling Dilution Method. The bacterium was inoculated on the surface of agar plate containing different concentration of drugs by multipoint inoculate instrument (Deneley A400). The bacterial content per point was 10^5 CFU/ml. After incubated at 37° C. for 18-24 hours, the result can be observed. The least concentration of drugs in plate culture solution without bacterium growing was Minimum Inhibitory Concentration (MIC) of the drug to the said bacteria. 3. Results

E. coli 02-1-65 = assay: MIC against the infecting strain (Table 2); format: cell-based; details: E. coli 02-1-65
How it was run: as §1

[6] = system: Staphylococcus aureus ATCC 29213; assay: MIC against the infecting strain (Table 2); format: cell-based; details: ATCC29213
How it was run: as §1

[7] = system: Staphylococcus aureus MRSA BAA-42; assay: MIC against the infecting strain (Table 2); format: cell-based; details: Staphylococcus aureus MRSA BAA-42
How it was run: as §1

[8] = system: methicillin-resistant Staphylococcus aureus ATCC BAA-42; assay: Bacteria growth curve (A595 nm), comparison of the novel antibiotics; format: cell-based; details: drug 5 μg/ml, 37° C., A595 nm per hour
How it was run: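 MRSA ATCC BAA-42 (10^6 CFU/ml inoculum level) grown in peptone/NaCl/yeast extract/glucose/K2HPO4 broth at 37 °C, 200 rpm, with each polypeptide at 5 μg/ml; buffer (0.3 M NaCl + 50 mM boric acid) and penicillin G 5 μg/ml as controls. Turbidity (A595 nm) sampled hourly for growth curves.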

B1: PMC-SA1: Staphylococcus aureus pheromone AgrD I linked to C-terminus of allosteric colicin Ia′; SEQ ID NO. 13; plasmid pBHC-SA1 (protein)
chain: SDPVRITNPAAESLGYDSDGREIMGVDIYLNPPRVDVFKGTPPAWSSFGNKTIWGGNEWVDDSPTRSDIEKRDKEITAYKNTLSAQQKENENKRTEAGKRLSAAIAAREKDENTLKTLRAGNADAADITRQEFRLLQAELREYGFRTEIAGYDALRLHTESRMLFADADSLRISPREARSLIEQAEKRQKDAQNADKKAADMLAEYERRKGILDTRLSELEKNGGAALAVLDAQQARLLGQQTRNDRAISEARNKLSSVTESLNTARNALTRAEQQLTQQKNTPDGKTIVSPEKFPGRSSTNHSIVVSGDPRFAGTIKITTSAVIDNRANLNYLLSHSGLDYKRNILNDRNPVVTEDVEGDKKIYNAEVAEWDKLRQRLLDARNKITSAESAVNSARNNLSARTNEQKHANDALNALLKEKENIRNQLSGINQKIAEEKRKQDELKATKDAINFTTEFLKSVSEKYGAKAEQLAREMAGQAKGKKIRNVEEALKTYEKYRADINKKINAKDRAAIAAALESVKLSDISSNLNRFSRGLGYAGKFTSLADWITEFGKAVRTENWRPLFVKTETIIAGNAATALVALVFSILTGSALGIIGYGLLMAVTGALIDESLVEKANKFWGIYSTCDFIM
modifications: The peptide of PMC-SA1
notes: Staphylococcus aureus pheromone AgrD I linked to C-terminus of allosteric colicin Ia′; 13; plasmid pBHC-SA1
antibiosis effect relative to oxacillin (by molecular weight and concentration) ([1]; 10 μg/ml PMC-SA1 vs 500 μg/ml oxacillin): about eight thousand | bactericidal effect, bacterial appearance under transmission electron microscope ([1]; PMC-SA1 10 μg/ml, 0.5 hours): bacterium were ruptured, the contents were leaked out; also recorded: the bacterium ruptured and leaked out its contents; also recorded: could kill methicillin-resistant Staphylococcus aureus effectively | MIC50 (Baumanii): 32 µg/mL | MIC90 (Baumanii): >64 µg/mL | MIC50 (E. coli): 16 µg/mL | MIC90 (E. coli): >32 µg/mL | MIC50 ([2]; MRSA clinical strains): 8 to 16 µg/mL | MIC90 ([2]; MRSA clinical strains): >16 µg/mL | Scope of MIC ([2]; MRSA clinical strains): <0.25 to 64 µg/mL | in vitro antibacterial activity relative to oxacillin, standardized by same drug molecular number in unit volume ([2]; Staphylococcus aureus, MRSA): 1,240 times | in vitro antibacterial activity relative to vancomycin, standardized by same drug molecular number in unit volume ([2]; Staphylococcus aureus, MRSA): three | MIC50 [3]: 0.5 µg/mL | MIC90 [3]: 16 µg/mL | MIC50 [4]: >64 µg/mL | MIC90 [4]: >64 µg/mL | MIC50 [5]: 1 µg/mL | MIC90 [5]: 32 µg/mL | Scope of MIC [5]: 0.25 to 64 µg/mL | MIC50 (Enterococcus): >64 µg/mL | MIC90 (Enterococcus): >64 µg/mL | MIC (Enterococcus ATCC 700802): 16 µg/mL | MIC (E. coli 02-1-65): 1 µg/mL | MIC [6]: 0.5 µg/mL | MIC [7]: 0.5 µg/mL | bacteriostasis effect on growth of methicillin-resistant Staphylococcus aureus (bacteria growth curve) [8]: the best
